T1: UBE2N (human, UniProt P61088 1-152)
T1 construct: endogenous prey from cell lysate; also called UBC13
T1 sequence (looked up): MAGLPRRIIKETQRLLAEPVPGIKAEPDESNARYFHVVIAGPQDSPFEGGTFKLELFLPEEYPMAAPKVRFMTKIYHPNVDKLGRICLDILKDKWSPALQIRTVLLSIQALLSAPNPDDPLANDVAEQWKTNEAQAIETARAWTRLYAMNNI


Each binder was assayed against T1, UBE2N (assay: AP-MS, PPI score from compPASS and SAINTexpress, MDA-MB-231 cells).
Protocol: For AP-MS experiments, samples were resuspended in 15 μL of MS loading buffer (4% formic acid, 2% acetonitrile) and 2 μL were separated by a reversed-phase gradient over a nanoflow 75 μm ID×25 cm long picotip column packed with 1.9 μM C18 particles (Dr. Maisch). Peptides were directly injected over the course of a 75 min acquisition into a Q-Exactive Plus mass spectrometer (Thermo), or over the course of a 90 min acquisition into a Orbitrap Elite mass spectrometer. […] Peptides and proteins were filtered to 1% false discovery rate in MaxQuant, and identified proteins were then subjected to protein-protein interaction scoring.
All PPI scoring was performed separately for each cell line. For SAINTexpress, control samples in which bait protein was not induced by addition of doxycycline were used. For CompPASS, a stats table representing all WT baits was used. After scoring, the CompPASS WD and Z-score were normalized within a given bait for each cell line. The total list of candidate PPIs was filtered to those that met the following criteria: SAINTexpress BFDR=<0.05, WD percentile by bait>=0.95, and Z-score percentile by bait≤=0.95. PPIs passing all 3 of these criteria were considered to be high-confidence PPIs. To enable visualization and analysis of PPIs by confidence score among these 3 criteria, a PPI score was calculated: [(WD percentile by bait+Z-score percentile by bait)/2)+(1−BFDR)]/2.

| PPI score | Binder |
| --- | --- |
| < 0.6 | BRCA1 5382insC (enzyme, human, UniProt P38398 1-1755, looked up, 3xFLAG-tagged bait; also called 5832insC) MDLSALRVEEVQNVINAMQKILECPICLELIKEPVSTKCDHIFCKFCMLKLLNQKKGPSQCPLCKNDITKRSLQESTRFSQLVEELLKIICAFQLDTGLEYANSYNFAKKENNSPEHLKDEVSIIQSMGYRNRAKRLLQSEPENPSLQETSLSVQLSNLGTVRTLRTKQRIQPQKTSVYIELGSDSSEDTVNKATYCSVGDQELLQITPQGTRDEISLDSAKKAACEFSETDVTNTEHHQPSNNDLNTTEKRAAERHPEKYQGSSVSNLHVEPCGTNTHASSLQHENSSLLLTKDRMNVEKAEFCNKSKQPGLARSQHNRWAGSKETCNDRRTPSTEKKVDLNADPLCERKEWNKQKLPCSENPRDTEDVPWITLNSSIQKVNEWFSRSDELLGSDDSHDGESESNAKVADVLDVLNEVDEYSGSSEKIDLLASDPHEALICKSERVHSKSVESNIEDKIFGKTYRKKASLPNLSHVTENLIIGAFVTEPQIIQERPLTNKLKRKRRPTSGLHPEDFIKKADLAVQKTPEMINQGTNQTEQNGQVMNITNSGHENKTKGDSIQNEKNPNPIESLEKESAFKTKAEPISSSISNMELELNIHNSKAPKKNRLRRKSSTRHIHALELVVSRNLSPPNCTELQIDSCSSSEEIKKKKYNQMPVRHSRNLQLMEGKEPATGAKKSNKPNEQTSKRHDSDTFPELKLTNAPGSFTKCSNTSELKEFVNPSLPREEKEEKLETVKVSNNAEDPKDLMLSGERVLQTERSVESSSISLVPGTDYGTQESISLLEVSTLGKAKTEPNKCVSQCAAFENPKGLIHGCSKDNRNDTEGFKYPLGHEVNHSRETSIEMEESELDAQYLQNTFKVSKRQSFAPFSNPGNAEEECATFSAHSGSLKKQSPKVTFECEQKEENQGKNESNIKPVQTVNITAGFPVVGQKDKPVDNAKCSIKGGSRFCLSSQFRGNETGLITPNKHGLLQNPYRIPPLFPIKSFVKTKCKKNLLEENFEEHSMSPEREMGNENIPSTVSTISRNNIRENVFKEASSSNINEVGSSTNEVGSSINEIGSSDENIQAELGRNRGPKLNAMLRLGVLQPEVYKQSLPGSNCKHPEIKKQEYEEVVQTVNTDFSPYLISDNLEQPMGSSHASQVCSETPDDLLDDGEIKEDTSFAENDIKESSAVFSKSVQKGELSRSPSPFTHTHLAQGYRRGAKKLESSEENLSSEDEELPCFQHLLFGKVNNIPSQSTRHSTVATECLSKNTEENLLSLKNSLNDCSNQVILAKASQEHHLSEETKCSASLFSSQCSELEDLTANTNTQDPFLIGSSKQMRHQSESQGVGLSDKELVSDDEERGTGLEENNQEEQSMDSNLGEAASGCESETSVSEDCSGLSSQSDILTTQQRDTMQHNLIKLQQEMAELEAVLEQHGSQPSNSYPSIISDSSALEDLRNPEQSTSEKAVLTSQKSSEYPISQNPEGLSADKFEVSADSSTSKNKEPGVERSSPSKCPSLDDRWYMHSCSGSLQNRNYPSQEELIKVVDVEEQQLEESGPHDLTETSYLPRQDLEGTPYLESGISLFSDDPESDPSEDRAPESARVGNIPSSTSALKVPQLKVAESAQSPAAAHTTDTAGYNAMEESVSREKPELTASTERVNKRMSMVVSGLTPEEFMLVYKFARKHHITLTNLITEETTHVVMKTDAEFVCERTLKYFLGIAGGKWVVSYFWVTQSIKERKMLNEHDFEVRGDVVNGRNHQGPKRARESPGQKDLQGARNLLLWALHQHAHRSTGMDGTAVWCFCGEGAFIIHPWHRCPPNCGCAARCLDRGQWLPCNWADV |
| < 0.6 | BRCA1 R71G (enzyme, human, UniProt P38398 1-1863, looked up, 3xFLAG-tagged bait; also called RING domain mutant R71G) MDLSALRVEEVQNVINAMQKILECPICLELIKEPVSTKCDHIFCKFCMLKLLNQKKGPSQCPLCKNDITKGSLQESTRFSQLVEELLKIICAFQLDTGLEYANSYNFAKKENNSPEHLKDEVSIIQSMGYRNRAKRLLQSEPENPSLQETSLSVQLSNLGTVRTLRTKQRIQPQKTSVYIELGSDSSEDTVNKATYCSVGDQELLQITPQGTRDEISLDSAKKAACEFSETDVTNTEHHQPSNNDLNTTEKRAAERHPEKYQGSSVSNLHVEPCGTNTHASSLQHENSSLLLTKDRMNVEKAEFCNKSKQPGLARSQHNRWAGSKETCNDRRTPSTEKKVDLNADPLCERKEWNKQKLPCSENPRDTEDVPWITLNSSIQKVNEWFSRSDELLGSDDSHDGESESNAKVADVLDVLNEVDEYSGSSEKIDLLASDPHEALICKSERVHSKSVESNIEDKIFGKTYRKKASLPNLSHVTENLIIGAFVTEPQIIQERPLTNKLKRKRRPTSGLHPEDFIKKADLAVQKTPEMINQGTNQTEQNGQVMNITNSGHENKTKGDSIQNEKNPNPIESLEKESAFKTKAEPISSSISNMELELNIHNSKAPKKNRLRRKSSTRHIHALELVVSRNLSPPNCTELQIDSCSSSEEIKKKKYNQMPVRHSRNLQLMEGKEPATGAKKSNKPNEQTSKRHDSDTFPELKLTNAPGSFTKCSNTSELKEFVNPSLPREEKEEKLETVKVSNNAEDPKDLMLSGERVLQTERSVESSSISLVPGTDYGTQESISLLEVSTLGKAKTEPNKCVSQCAAFENPKGLIHGCSKDNRNDTEGFKYPLGHEVNHSRETSIEMEESELDAQYLQNTFKVSKRQSFAPFSNPGNAEEECATFSAHSGSLKKQSPKVTFECEQKEENQGKNESNIKPVQTVNITAGFPVVGQKDKPVDNAKCSIKGGSRFCLSSQFRGNETGLITPNKHGLLQNPYRIPPLFPIKSFVKTKCKKNLLEENFEEHSMSPEREMGNENIPSTVSTISRNNIRENVFKEASSSNINEVGSSTNEVGSSINEIGSSDENIQAELGRNRGPKLNAMLRLGVLQPEVYKQSLPGSNCKHPEIKKQEYEEVVQTVNTDFSPYLISDNLEQPMGSSHASQVCSETPDDLLDDGEIKEDTSFAENDIKESSAVFSKSVQKGELSRSPSPFTHTHLAQGYRRGAKKLESSEENLSSEDEELPCFQHLLFGKVNNIPSQSTRHSTVATECLSKNTEENLLSLKNSLNDCSNQVILAKASQEHHLSEETKCSASLFSSQCSELEDLTANTNTQDPFLIGSSKQMRHQSESQGVGLSDKELVSDDEERGTGLEENNQEEQSMDSNLGEAASGCESETSVSEDCSGLSSQSDILTTQQRDTMQHNLIKLQQEMAELEAVLEQHGSQPSNSYPSIISDSSALEDLRNPEQSTSEKAVLTSQKSSEYPISQNPEGLSADKFEVSADSSTSKNKEPGVERSSPSKCPSLDDRWYMHSCSGSLQNRNYPSQEELIKVVDVEEQQLEESGPHDLTETSYLPRQDLEGTPYLESGISLFSDDPESDPSEDRAPESARVGNIPSSTSALKVPQLKVAESAQSPAAAHTTDTAGYNAMEESVSREKPELTASTERVNKRMSMVVSGLTPEEFMLVYKFARKHHITLTNLITEETTHVVMKTDAEFVCERTLKYFLGIAGGKWVVSYFWVTQSIKERKMLNEHDFEVRGDVVNGRNHQGPKRARESQDRKIFRGLEICCYGPFTNMPTDQLEWMVQLCGASVVKELSSFTLGTGVHPIVVVQPDAWTEDNGFHAIGQMCEAPVVTREWVLDSVALYQCQELDTYLIPQIPHSHY |
| < 0.6 | BRCA1 S1655F (enzyme, human, UniProt P38398 1-1863, looked up, 3xFLAG-tagged bait; also called BRCT domain mutant S1655F; 51655F) MDLSALRVEEVQNVINAMQKILECPICLELIKEPVSTKCDHIFCKFCMLKLLNQKKGPSQCPLCKNDITKRSLQESTRFSQLVEELLKIICAFQLDTGLEYANSYNFAKKENNSPEHLKDEVSIIQSMGYRNRAKRLLQSEPENPSLQETSLSVQLSNLGTVRTLRTKQRIQPQKTSVYIELGSDSSEDTVNKATYCSVGDQELLQITPQGTRDEISLDSAKKAACEFSETDVTNTEHHQPSNNDLNTTEKRAAERHPEKYQGSSVSNLHVEPCGTNTHASSLQHENSSLLLTKDRMNVEKAEFCNKSKQPGLARSQHNRWAGSKETCNDRRTPSTEKKVDLNADPLCERKEWNKQKLPCSENPRDTEDVPWITLNSSIQKVNEWFSRSDELLGSDDSHDGESESNAKVADVLDVLNEVDEYSGSSEKIDLLASDPHEALICKSERVHSKSVESNIEDKIFGKTYRKKASLPNLSHVTENLIIGAFVTEPQIIQERPLTNKLKRKRRPTSGLHPEDFIKKADLAVQKTPEMINQGTNQTEQNGQVMNITNSGHENKTKGDSIQNEKNPNPIESLEKESAFKTKAEPISSSISNMELELNIHNSKAPKKNRLRRKSSTRHIHALELVVSRNLSPPNCTELQIDSCSSSEEIKKKKYNQMPVRHSRNLQLMEGKEPATGAKKSNKPNEQTSKRHDSDTFPELKLTNAPGSFTKCSNTSELKEFVNPSLPREEKEEKLETVKVSNNAEDPKDLMLSGERVLQTERSVESSSISLVPGTDYGTQESISLLEVSTLGKAKTEPNKCVSQCAAFENPKGLIHGCSKDNRNDTEGFKYPLGHEVNHSRETSIEMEESELDAQYLQNTFKVSKRQSFAPFSNPGNAEEECATFSAHSGSLKKQSPKVTFECEQKEENQGKNESNIKPVQTVNITAGFPVVGQKDKPVDNAKCSIKGGSRFCLSSQFRGNETGLITPNKHGLLQNPYRIPPLFPIKSFVKTKCKKNLLEENFEEHSMSPEREMGNENIPSTVSTISRNNIRENVFKEASSSNINEVGSSTNEVGSSINEIGSSDENIQAELGRNRGPKLNAMLRLGVLQPEVYKQSLPGSNCKHPEIKKQEYEEVVQTVNTDFSPYLISDNLEQPMGSSHASQVCSETPDDLLDDGEIKEDTSFAENDIKESSAVFSKSVQKGELSRSPSPFTHTHLAQGYRRGAKKLESSEENLSSEDEELPCFQHLLFGKVNNIPSQSTRHSTVATECLSKNTEENLLSLKNSLNDCSNQVILAKASQEHHLSEETKCSASLFSSQCSELEDLTANTNTQDPFLIGSSKQMRHQSESQGVGLSDKELVSDDEERGTGLEENNQEEQSMDSNLGEAASGCESETSVSEDCSGLSSQSDILTTQQRDTMQHNLIKLQQEMAELEAVLEQHGSQPSNSYPSIISDSSALEDLRNPEQSTSEKAVLTSQKSSEYPISQNPEGLSADKFEVSADSSTSKNKEPGVERSSPSKCPSLDDRWYMHSCSGSLQNRNYPSQEELIKVVDVEEQQLEESGPHDLTETSYLPRQDLEGTPYLESGISLFSDDPESDPSEDRAPESARVGNIPSSTSALKVPQLKVAESAQSPAAAHTTDTAGYNAMEESVSREKPELTASTERVNKRMSMVVFGLTPEEFMLVYKFARKHHITLTNLITEETTHVVMKTDAEFVCERTLKYFLGIAGGKWVVSYFWVTQSIKERKMLNEHDFEVRGDVVNGRNHQGPKRARESQDRKIFRGLEICCYGPFTNMPTDQLEWMVQLCGASVVKELSSFTLGTGVHPIVVVQPDAWTEDNGFHAIGQMCEAPVVTREWVLDSVALYQCQELDTYLIPQIPHSHY |
